Changes are numbered by the printed parent chain. Values joined by “and” are separate entries in the source; they are usually repeats but may differ in a detail not shown here. Equal values may be shown once.
Columns and labels:
[1] = target: T1, human chimeric receptor FGFR4-Fc (R&D Systems) (human, UniProt P22455 22-369); assay: competition ELISA, FGF19 binding to FGFR4-Fc
T1 construct: extracellular domain; bought; also called hFGFR4-Fc; not shown: human IgG Fc
T1 sequence (looked up): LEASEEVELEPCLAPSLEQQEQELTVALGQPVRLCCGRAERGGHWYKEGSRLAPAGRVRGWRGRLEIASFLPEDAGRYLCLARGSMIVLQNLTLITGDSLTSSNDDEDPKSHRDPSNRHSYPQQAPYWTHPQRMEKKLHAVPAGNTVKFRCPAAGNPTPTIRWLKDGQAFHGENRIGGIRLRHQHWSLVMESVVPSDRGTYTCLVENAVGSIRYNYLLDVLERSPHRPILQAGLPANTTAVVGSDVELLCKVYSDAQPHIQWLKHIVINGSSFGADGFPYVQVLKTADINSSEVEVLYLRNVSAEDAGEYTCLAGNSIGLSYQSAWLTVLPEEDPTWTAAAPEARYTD

[2] = target: T2, murine FGFR4 (mouse, UniProt Q03142 17-799); assay: told with the epitope alignment
T2 construct: whole, on cells; full-length, on transfected BOSC23 cells; also called murine receptor; murine FL FGFR4
T2 sequence (looked up): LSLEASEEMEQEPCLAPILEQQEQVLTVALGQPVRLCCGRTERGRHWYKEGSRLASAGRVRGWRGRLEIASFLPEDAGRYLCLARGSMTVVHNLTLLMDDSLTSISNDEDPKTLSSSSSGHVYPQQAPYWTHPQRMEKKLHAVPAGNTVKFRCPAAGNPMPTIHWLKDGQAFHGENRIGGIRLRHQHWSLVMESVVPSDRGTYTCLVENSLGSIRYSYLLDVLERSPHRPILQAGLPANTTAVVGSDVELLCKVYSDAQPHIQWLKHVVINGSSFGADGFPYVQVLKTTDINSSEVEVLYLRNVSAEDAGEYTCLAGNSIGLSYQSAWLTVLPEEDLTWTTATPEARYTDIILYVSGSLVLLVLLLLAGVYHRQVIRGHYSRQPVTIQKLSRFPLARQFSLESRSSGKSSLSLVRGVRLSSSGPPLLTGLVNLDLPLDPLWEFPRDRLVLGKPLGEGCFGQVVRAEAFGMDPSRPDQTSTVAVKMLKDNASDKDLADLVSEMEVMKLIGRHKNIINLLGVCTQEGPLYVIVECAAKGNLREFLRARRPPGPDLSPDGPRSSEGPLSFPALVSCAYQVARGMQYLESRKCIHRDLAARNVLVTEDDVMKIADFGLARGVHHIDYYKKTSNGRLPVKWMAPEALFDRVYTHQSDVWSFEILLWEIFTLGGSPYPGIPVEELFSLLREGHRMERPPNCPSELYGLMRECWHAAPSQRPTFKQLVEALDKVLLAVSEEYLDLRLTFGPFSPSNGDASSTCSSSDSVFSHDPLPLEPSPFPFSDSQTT

[3] = target: T3, human chimeric receptor FGFR3-Fc (R&D Systems) (human, UniProt P22607 23-375); assay: solid phase receptor binding assay
T3 construct: extracellular domain; not shown: human Fc
T3 sequence (looked up): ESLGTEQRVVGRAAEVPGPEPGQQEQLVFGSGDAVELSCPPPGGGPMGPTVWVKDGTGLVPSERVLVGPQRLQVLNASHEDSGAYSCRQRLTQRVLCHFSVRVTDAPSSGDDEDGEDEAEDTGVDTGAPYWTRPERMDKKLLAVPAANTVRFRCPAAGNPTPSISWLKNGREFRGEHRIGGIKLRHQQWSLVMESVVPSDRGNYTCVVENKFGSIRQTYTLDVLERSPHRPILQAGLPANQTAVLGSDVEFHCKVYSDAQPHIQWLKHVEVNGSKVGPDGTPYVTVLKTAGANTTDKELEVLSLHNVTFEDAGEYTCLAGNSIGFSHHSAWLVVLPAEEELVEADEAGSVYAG

B1: Hu3B6a (antibody, human IgG1, V domains shown)
VH: EVQLVESGGGLVQPGGSLRLSCAASGFTFSNYYMSWVRQAPGKGLEWVATINPSGTRTYYPDSVKGRFTISRDNAKNSLYLQMNSLRAEDTAVYYCARLYNNYAFDYWGQGTLVTVSS
VL: DIQMTQSPSSLSASVGDRVTITCRASESISTLLHWYQQKPGKAPKLLIYGTSNLESGVPSRFSGSGSGTDFTLTISSLQPEDFATYYCQQSWNDPPTFGGGTKVEIK
IC50 [1]: 0.13 µg/mL and 0.87 nM

B2: Hu3B6c (antibody, human IgG1, V domains shown)
VH: B1 VH with N74S, N77S
VL: B1 VL
IC50 [1]: 0.07 µg/mL and 0.47 nM

B3: Hu3B6e (antibody, human IgG1, V domains shown)
VH: B1 VH with T50N
VL: B1 VL with I29V, L33M
IC50 [1]: 0.16 µg/mL and 1 nM

B4: Hu3B6b (antibody, human IgG1, V domains shown)
VH: B1 VH with T50N
VL: B1 VL
IC50 [1]: 0.4 µg/mL and 2.7 nM

B5: Hu3B6f (antibody, human IgG1, V domains shown)
VH: B1 VH with N74S, N77S
VL: B1 VL with I29V, L33M
IC50 [1]: 0.09 µg/mL and 0.6 nM

B6: Hu3B6d (antibody, human IgG1, V domains shown)
VH: B1 VH
VL: B1 VL with I29V, L33M
IC50 [1]: 0.03 µg/mL and 0.2 nM

B7: ch3B6 (antibody, human IgG1, V domains shown)
VH: EVQLVESGGGLVQPGRSLKLSCAASGFTFSNYYMAWVRQAPKKGLEWVATINPSGTRTYYPDSVKGRFTLSRDSAKSSLYLQMNSLKSEDTATFYCARLYNNYAFDYWGQGVMVTVSS
VL: DVQMTQSPALAVSPGERVSISCRASESVSTLMHWYQQKPGQQPKLLIYGTSNLESGVPARFSGSGSGTDFTLNIDPVEADDTATYFCQQSWNDPPTFGGGTKLELK
notes: human-rat chimeric antibody, human IgG1 constant regions and human kappa constant region; also called chimeric 3B6
binding result [2]: binds | binding result [3]: no binding (tested: 9 ug/mL)
